Results from paper PMC9274004, “Deciphering the Molecular Interaction Between the Adhesion G Protein-Coupled Receptor ADGRV1 and its PDZ-Containing Regulator PDZD7” (Frontiers in Molecular Biosciences, 2022).

Assays:
[1] = system: harmonin supramodule; details: for protocadherin-15; ref Michel et al., 2020; cited from earlier work
Description: These folded extensions modulate the affinity of associated PDZ domains for their partners and promote the formation of domain assembly. In harmonin, this extension folds as a hairpin followed by a short α-helix mediating the formation of a heterotopic supramodule between the first PDZ and the upstream Harmonin Homology Domain (HHD) and forming direct contacts with residues upstream of the partner’s PBM ([Yan et al., 2010]) (PDB e ...

[2] = target: T1, PDZD7 PDZ tandem (P1P2 construct; A81 to G313) (mouse); assay: other fluorescence titration; tryptophan fluorescence (excitation 295 nm) of P1P2 at 2 µM in Phosphate Buffer pH 6.6 (50 mM) on progressive addition of ADGRV1pbm peptide or the cytoplasmic domain; apparent Kd
T1 sequence (E9Q9W7 81-313, looked up): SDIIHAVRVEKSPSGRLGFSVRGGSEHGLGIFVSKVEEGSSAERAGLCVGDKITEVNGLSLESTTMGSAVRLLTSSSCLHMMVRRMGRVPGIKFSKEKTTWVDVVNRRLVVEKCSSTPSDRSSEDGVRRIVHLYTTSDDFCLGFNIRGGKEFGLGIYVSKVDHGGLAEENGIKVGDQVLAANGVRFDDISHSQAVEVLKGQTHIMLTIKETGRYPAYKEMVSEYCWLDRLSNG

[3] = target: PDZD7 N-terminus with PDZ1 and its extension (N-PDZ1ext construct; M1-E192) (mouse) (UniProt E9Q9W7); assay: NMR titration; chemical shift perturbations of PDZ1ext or N-PDZ1ext with the whole ADGRV1 cytoplasmic domain or the PBM peptide; apparent Kd, mean over at least ten shifting peaks; buffer not given for these titrations
[4] = target: T2, PDZD7 first PDZ domain with its C-terminal extension (PDZ1ext construct; A81 to E192) (mouse); assay: as above
T2 sequence (E9Q9W7 81-192, looked up): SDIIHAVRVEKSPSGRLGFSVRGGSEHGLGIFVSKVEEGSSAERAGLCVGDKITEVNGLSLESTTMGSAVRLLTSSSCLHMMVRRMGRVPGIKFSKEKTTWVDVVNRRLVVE

[5] = target: T3, PDZD7 PDZ1ext (81-192) (Mus musculus, UniProt E9Q9W7); assay: NMR titration of PDZ1ext with ADGRV1 ligands; type: binding, murine; details: NMR titration, 25°C; apparent Kd, SD over at least ten shifting peaks; ligand whole cytoplasmic domain; read-out: Kd (Cyto)
T3 construct: PDZ1 (81-167), PDZ1ext (81-192); GST (followed by TEV site) (N, cleaved yes); made in house; host or cells: E. coli BL21 DE3
T3 sequence (E9Q9W7 81-192): T2 sequence (E9Q9W7 81-192, looked up)
Experimental: All experiments were recorded at 25°C on a Bruker 800 MHz spectrometer equipped with a triple resonance ^1H{^13C/^15N} cryoprobe. The ^1H, ^15 N and ^13C backbone resonances assignment of PDZ1ext was carried out using 3D HNCA, HNCACB, HNCO, HNCOCA experiments (Tris HCl buffer adjusted to pH 6). The 2D ^1H-^15N HSQC spectra used to compare PDZ1, PDZ1ext, PDZ2 and PDZ2ext were recorded in Tris HCl pH 7.5 (50 mM). The 2D ^1H-^15N HSQC spectra used to compare PDZ1ext, PDZ2ext and P1P2 were recorded in Phosphate Buffer pH 6.5 (50 mM). Titration experiments of PDZ1 (WT), PDZ1ext (WT) and PDZ1ext (G103R) against ADGRV1pbm peptide were performed in Tris HCl pH 7.5 (50 mM). Averaged Chemical Shifts Perturbations (CSP) were calculated as: Δδavg = ((Δδ(^1H))^2+(Δδ(^15N)*0.159)^2)^½. […]
We monitored the interaction between PDZD7 constructs and a peptide (ADGRV1pbm) corresponding to the last 13 residues of ADGRV1, encompassing its PBM (sequence VELRRIPIADTHL-COOH; PBM underlined). We measured apparent Kd values of our constructs towards ADGRV1pbm using several biophysical methods (NMR, fluorescence, MicroScale Thermophoresis (MST)) (Table 1; Supplementary Figure S3–S5). […]

[6] = target: T4, PDZD7 N-PDZ1ext (Mus musculus, UniProt E9Q9W7); assay: NMR titration of N-PDZ1ext with ADGRV1 ligands; type: binding, murine
T4 construct: including the N-terminus of the protein (N-PDZ1ext construct; M1-E192); GST (followed by TEV site) (N, cleaved yes); made in house; host or cells: E. coli BL21 DE3
T4 sequence (E9Q9W7 1-192): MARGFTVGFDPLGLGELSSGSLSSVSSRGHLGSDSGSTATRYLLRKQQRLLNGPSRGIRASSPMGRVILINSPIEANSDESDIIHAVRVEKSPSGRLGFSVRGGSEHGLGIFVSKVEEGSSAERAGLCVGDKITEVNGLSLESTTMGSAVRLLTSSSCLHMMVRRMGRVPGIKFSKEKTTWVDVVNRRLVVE
Experimental: All experiments were recorded at 25°C on a Bruker 800 MHz spectrometer equipped with a triple resonance ^1H{^13C/^15N} cryoprobe. The ^1H, ^15 N and ^13C backbone resonances assignment of PDZ1ext was carried out using 3D HNCA, HNCACB, HNCO, HNCOCA experiments (Tris HCl buffer adjusted to pH 6). The 2D ^1H-^15N HSQC spectra used to compare PDZ1, PDZ1ext, PDZ2 and PDZ2ext were recorded in Tris HCl pH 7.5 (50 mM). The 2D ^1H-^15N HSQC spectra used to compare PDZ1ext, PDZ2ext and P1P2 were recorded in Phosphate Buffer pH 6.5 (50 mM). Titration experiments of PDZ1 (WT), PDZ1ext (WT) and PDZ1ext (G103R) against ADGRV1pbm peptide were performed in Tris HCl pH 7.5 (50 mM). Averaged Chemical Shifts Perturbations (CSP) were calculated as: Δδavg = ((Δδ(^1H))^2+(Δδ(^15N)*0.159)^2)^½. For the determination of dissociation constants (Kd) of each peptide/PDZ interaction, averaged CSP δavg was plotted as a function of the molar ratio (peptide/PDZ) for several peaks and fitted using nonlinear regression and assuming a simple complex formation model.
The P1P2 tandem of PDZD7 is preceded by 80 residues with no predicted secondary or tertiary structure, but which could contribute to the interaction with ADGRV1. […] We first aimed at identifying potential secondary structures in both PDZD7 N-terminal region and ADGRV1 cytoplasmic domain. To this end, we produced both an extended PDZ1ext construct, including the N-terminus of the protein (N-PDZ1ext construct; M1-E192) and the whole ADGRV1 cytoplasmic domain of 152 residues.
On the overlay of PDZ1ext and N-PDZ1ext HSQC spectra, there is no significant chemical shift changes on PDZ1ext due to the presence of the N-terminal region (CSPs <0.04 ppm). […] We used the entire cytoplasmic domain of ADGRV1 as partner of PDZD7 in NMR and fluorescence titrations experiments. […] Finally, we measured Kd values in the few micromolar range between the tandem P1P2 and the whole cytoplasmic domain and the last 13 residues of ADGRV1 by fluorescence experiments.

[7] = target: T5, PDZD7 second PDZ domain (PDZ2 construct; G206 to G292) (mouse, UniProt E9Q9W7-1 206-292); assay: MST; label-free; PDZ2 at 140 μM in MES pH6 (50 mM) mixed 1:1 with a serial dilution of ADGRV1pbm peptide; apparent Kd; details: both partners purified
T5 construct: PDZD7, mouse, long isoform (Uniprot E9Q9W7-1), residues 206-292; source: E. coli BL21 DE3, purified (GSTrap, on-column TEV cleavage, SEC); not shown: GST, N-terminal, cleaved
T5 sequence (looked up): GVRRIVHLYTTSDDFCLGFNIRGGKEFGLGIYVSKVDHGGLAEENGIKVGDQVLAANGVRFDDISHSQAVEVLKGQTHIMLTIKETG

[8] = target: T6, PDZD7 second PDZ domain with its C-terminal extension (PDZ2ext construct; G206 to G313) (mouse, UniProt E9Q9W7-1 206-313); assay: other fluorescence titration; tryptophan fluorescence (excitation 295 nm) of PDZ2ext at 5 µM in Tris HCl pH 7.5 (50 mM) on progressive addition of ADGRV1pbm peptide; apparent Kd; details: both partners purified
T6 construct: also called PDZ2ext WT; source: E. coli BL21 DE3, purified (GSTrap, on-column TEV cleavage, SEC); not shown: GST, N-terminal, cleaved
T6 sequence (looked up): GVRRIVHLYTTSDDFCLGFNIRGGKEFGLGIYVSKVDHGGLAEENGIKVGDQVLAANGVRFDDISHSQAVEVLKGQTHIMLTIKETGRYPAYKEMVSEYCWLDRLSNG

[9] = target: PDZD7 PDZ1ext G103R (mouse); assay: NMR titration; 1H-15N HSQC chemical shift perturbations of the labelled PDZ construct on addition of ADGRV1pbm peptide; Tris HCl pH 7.5 (50 mM), 25°C; apparent Kd, mean over at least 10 shifting peaks
[10] = target: T2, PDZD7 first PDZ domain with its C-terminal extension (PDZ1ext construct; A81 to E192) (mouse); assay: as above
[11] = target: PDZD7 PDZ tandem P1P2 G103R (mouse); assay: other fluorescence titration; tryptophan fluorescence (excitation 295 nm) of P1P2 at 2 µM in Phosphate Buffer pH 6.6 (50 mM) on progressive addition of ADGRV1pbm peptide or the cytoplasmic domain; apparent Kd
[12] = target: T7, PDZD7 first PDZ domain (PDZ1 construct; A81 to G167) (mouse, Natural entry residue kept at 81: the paper prints A81 but the entry has Ser, so the Ala is probably a cloning junction or a misprint. The GST tag was removed by TEV; a short N-terminal scar is possib); assay: NMR titration; 1H-15N HSQC chemical shift perturbations of the labelled PDZ construct on addition of ADGRV1pbm peptide; Tris HCl pH 7.5 (50 mM), 25°C; apparent Kd, mean over at least 10 shifting peaks; details: both partners purified
T7 chain: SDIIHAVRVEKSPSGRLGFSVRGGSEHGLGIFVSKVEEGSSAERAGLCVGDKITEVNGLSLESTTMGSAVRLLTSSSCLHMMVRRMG

For “protocadherin-15: partner of harmonin supramodule”, the “increased affinity of harmonin supramodule vs isolated PDZ” value [1] is given as roughly 10 fold.

B1: ADGRV1 whole cytoplasmic domain (domain or fragment)
chain: HNQTCCPMKASYTVEMNGHPGPSTAFFTPGSGIPPAGEINKSTQNLINAMEEVPSDWERSSFQQTSQASPDLKTSPQNGASFPSSGGYGPGSLIADEESQEFDDLIFALKTGAGLSVSDNESGQGSQEGGTLTDSQIVELRRIPIADTHL
Molecule B1 has a Kd [2] of 8.1 µM, a Kd [3] of 241 µM and a Kd [4] of 41 µM.

B2: ADGRV1 whole cytoplasmic domain: whole ADGRV1 cytoplasmic domain of 152 residues, murine long isoform (CCDS36737; 6149-6298) (protein)
chain: B1 chain
modifications: left off: Histidine tag, N-terminal, cleaved
In the case of B2, the Kd [5] is reported as 41 ± 14 µM, the Kd ([6]; NMR titration, 25°C, SD over at least ten shifting peaks, ligand whole cytoplasmic domain, read-out: Kd (Cyto)) is reported as 241 ± 115 µM and the decrease in affinity ([6]; due to the long unfolded N-terminus region, N-PDZ1ext vs PDZ1ext) is reported as 6 fold.

B3: ADGRV1pbm peptide (last 13 residues of ADGRV1, with its PDZ binding motif) (peptide)
peptide: VELRRIPIADTHL
notes: ADGRV1, last 13 residues, free C-terminal carboxylate as printed (-COOH); The other ADGRV1 constructs are murine
Work on B3 yielded a Kd [7] of 313 µM, a Kd [8] of 3.1 µM and a Kd [9] of 1.19 mM. It also gave a Kd [10] of 47 µM, a Kd [2] of 1.6 µM and a Kd [11] of 1900 nM. It also gave a Kd [12] of 1.31 mM.
